Source: the nanobody polyreactivity screen of Harvey et al. (2022)

Test: yeast display, Sf9 membrane polyspecificity reagent, FACS + sequencing; frameworks hold sequencing errors
Method in brief: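 A nanobody's polyreactivity label depends on the gate it was sorted from. Yeast display cells were stained with 10% biotinylated, detergent-solubilized Sf9 membrane reagent for 1 hour at 4 °C, enriched on streptavidin microbeads and sorted by FACS. The low and high (top ~1%) gates were set on anti-HA fluorescence for expression and streptavidin fluorescence for reagent binding.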

Sequence	polyreactivity (PSR sort gate)
QVQLVESGGGLVQAGVSLRLSCAASGGILYWYAMGWSRQAPGKERELVAAIDWTGGSTYYADSVKGRFTISRDNAKNTVYLQMNSLKPEDTAVYYCAADSYWGSGVVPGYDYWGQGTQVTVSS	low polyreactivity
QVQLVESGGGLVQAGVSLRLSCAASGITFARYTMGWYRQAPGKERELVAAINTSGGSTRYADSVKGRFTISRDNAKNTVYLQMNSLKPEDTAVYYCAARRKHSLFGKRYYWGQGTQVTVSS	high polyreactivity
QVQLVESGGGLVQAGVSLRLSCAASGITLYRYVMGWNRQAPGKERELVADISGRGTSTYYADSVKGRFTSSRDYAKNTVYLQMYRLKPEATAVYYCNAEYTKTGALGIPYTYYYAEDYWGQGTQVTVSS	low polyreactivity
QVQLVESGGGLVQAGVSLRLSCAASGNIFEQYAMGSDRQAPGKERELVARISWRGGSTYYADSVKGRFTISRDNAKNTVYLQLNSLKPEDTAVYYCNALEVVYFGYYPSDYWGQGTQVTVSS	low polyreactivity
QVQLVESGGGLVQAGVSLRLSCAASGRIFPYNAMGWDRQAPGKERELVAAIDWSGGRTYYADSVKGRFTISRDNAKNTDYLQMNSLKPEDTALYYCAAAYGGRLRYTAGYYWGQGTQVTVSS	high polyreactivity
QVQLVESGGGLVQAGVSLRLSCAASGRIKDNVMGWYRQAPGKERELVAAITRYAGRTYYAYSVKGRFTISRDNAKITVYLQMNSLKPVDTAVYYCAAQAERSGYEYWGLGTQVTVSS	low polyreactivity
QVQLVESGGGLVQAGVSLRLSCAASGRTFIGNAMGWYRQAPGKEREFVAAISRRGGSTYYADSVKGRFTISRDNAKNTVYLQMNSLKPEDTAVYYCAAGQTTTGILTYYYWGQGTQVTVSS	high polyreactivity
QVQLVESGGGLVQAGVSLRLSCAASGSTFGANAMGWYRQAPGKEREFVAAISGSGTTTYYADSVKGRFTISRDNAKNTVYLQMNSLKPEDTAVYYCAKTRKAHWLEYWGQGTQVTVSS	low polyreactivity
QVQLVESGGGLVQAGVSLRLSCAASGSTFVVNAMGWYRQAPGKERELVAAITQSGGSTFYADSVKGRFTISRDNAKNTVYLQMNSLKPEDTAVYYWGQGTQVTVSS	low polyreactivity
QVQLVESGGGLVQAGVSLRLSCAASMGWYRQAPGKERELVAAITRGGTTYYADSVQGRFTISRDNAKNTVYLQMNSLKPEDTAVYYGAKAGPGFLYDHWGQGTQVTVSS	high polyreactivity
QVQLVESGGGLVQAGVSLRLSCAASVITFVYYTMGWYRQAPGKERELVAAISQSAVNTYYADSVKGRFTISRDNAKNTVYLQMNSLKPEVTAVYYCNARFRATFTSYGTDYRRRFDYWGQGTQVTVSS	high polyreactivity
QVQLVESGGGLVQAGVSLRLSCAASVSIFSGNTMGWYRQAPGKERELVAAIRWRGGTYYADSVKGRFTISRDNAKNTVYLQMNSLKPEDPAVYYCATSVKPSYDYWGQGTQVTVSS	low polyreactivity
QVQLVESGGGLVQAGVSLRLSSAASGSTFLYYAMGWYRQAPGKESEMVAAIDWSDTSTYFADSVKGRFTISRDIAKNTVYLQMNSLKTEDTAVYYCIREATYVYAAGYDYWGQGTQVTVSS	low polyreactivity
QVQLVESGGGLVQAGVSLRLSSAASGSTLGYNVMGWYRQAPGKERELVAAISGDGSTNYADSVKGRFTISRDNAKNTVYLQMNSLKPEDTAVFYCNAPFWGYRTSFSYPVVQRFDYWGQGTQVTVSS	low polyreactivity
QVQLVESGGGLVQAGVSLSLSCADSGSFSDFYAMGWYRQAPGKERELVAAITSSGGSTYYADSVKGRFTISREIAKNTGYLQMNSLKPEDTAVYYCNRYSNLGYNYWGQGTQVSVSS	high polyreactivity
QVQLVESGGGLVQAPGSLRLSSAASGRIFNQYGMGWYRQAPGKERELVAAIRSGDSTNYADSVKGRFTISRDNAKNTVYLQMNSLKQEDSAVYYCARDRPGDYAGYYYWGKGTQVTVSS	low polyreactivity
QVQLVESGGGLVQARASLRLSCAASGNTIGYYAMGWYRQAHGKERELVAAISKRGGSTRYADSVKGRFTISRDNAKNTVYLQMNSLKPEDTAVYYCNAEGFGSLRYSYCNSFDYWGQGTQVTVSS	high polyreactivity
QVQLVESGGGLVQARGSHRLSCAASGSIFVINAMGWYRQAPGKERELVAAISYSGTGTYFADSVKGRFTISRDNAKNTVYLQMNSLKPEDTAVYYCAADYYYRYRIYDYWGQGTQVTVSS	low polyreactivity
QVQLVESGGGLVQARGSLRLICAASGRTINGYVMGWYRPAPGKEREFVAVINWSGGNTYYADSVKGRFTISRDNAKNTLYLQMNSLKPEDTAVYDCAARRVRSYAYDYWGQGTEVTVSS	high polyreactivity
QVQLVESGGGLVQARGSLRLNSAASGRTFYQYVMGWYRQAPWKERELVAAIRSGGNTYYADSEKGRITISRDNAKYTVYLQMNSLKPEDTAVYYCAVQRGYYRFRLGLYCYDYWGQGTQVTVSS	high polyreactivity
QVQLVESGGGLVQARGSLRLSCAASGFTSLWNGMGLSSQAPGKERELVAAITSDSSTYYADSVKGRFTISRDNAKNTVYLQMNSLKPEDTAVYYCAKYFVYVGYGRYDYWGQGTEVTVSS	low polyreactivity
QVQLVESGGGLVQARGSLRLSCAASGIIFAFYAMGWYRQPPGKERELVAGITSGGDTYYADSVKGRFTISRDNAKKTVYLQMNRLKPEDTAVYYCAAVVQYPYRAGWRYWYATNFDYWGQGTQVTVSS	high polyreactivity

Sequence	polyreactivity (PSR sort gate)
QVQLVESGGGLVQARGSLRLSCAASGIIFYPNAMGWYRQAPGKERELVASIRSGGITTYADSVKGRFTISRDNAKNTVYLQMNSLKPEDTAVYDCATRSYYRYATFAYYYWGQGTQVTVSS	high polyreactivity
QVQLVESGGGLVQARGSLRLSCAASGINFYHYPMGWYRQATGKEMELVAAINWGGSRTYYADSVKGRFTISRDNAKNTVYLQMNSLKPEDTAVYYCAAVYVPYYWLGRSRGLDYWGQGTQVTVSS	high polyreactivity
QVQLVESGGGLVQARGSLRLSCAASGRIFGLYAMGWYRQAPGKERELVASINSRGGSTNYADSVKGRFTISRDNAKNTVYLQMTSLKPEDTAVYYCNARFVYAYQRYYWGQGTQVTVSS	high polyreactivity
QVQLVESGGGLVQARGSLRLSCAASGRIFNYNAMGWYRQAPGKERELVAAITSSGGSTYYADSVKGRFTISRDNAKNTVYLQMNSLKPEDTAVYYCNALITYSSDYWGQGTQVTVSS	low polyreactivity
QVQLVESGGGLVQARGSLRLSCAASGRTFFNNAMGWYRQAPGKERELVAGISVTTGSTYYADSVKGRFTISRDNAKNTVYLQMNSLKPEDTAVYYCAARRKQYYAAYRYYYWGQGTQVTVSS	high polyreactivity
QVQLVESGGGLVQARGSLRLSCAASGRTFTYNAMAWYRQAPGKERELVAAINSGGSTNYADSVKGRFTISRDNAKNTVYLQMNSLKPEDTAVYYCNAGFGFGSSRYGTRYYYWGQGSQVTVSS	low polyreactivity
QVQLVESGGGLVQARGSLRLSCAASGRTFYYYAMGWSRQAPGKERELVATISSGGSTSYADSVKGRFTISRDNAKNTVNLQMNSLKPEDTAVYYWNGRGRYLGTYHLGRLYNFWGQGTQVTVSS	high polyreactivity
QVQLVESGGGLVQARGSLRLSCAASGSIFPPYAMGWYRQAPGKERELVAAINSGGSTNYADSVKGRFTISRDNAKNTVYLQMNSLKAEDTAVYYCAAEVVYPVYEYDYWGQGTQVTVSS	low polyreactivity
QVQLVESGGGLVQARGSLRLSCAASGSIFSYYARGLYRQAPGKESELVAAITRGGTTYYADSVKGRFTISRDNAKNSVYLQMNSLKPEDTAVYYCAVYYYSGTAGYRYGYWGQGSQVTVSS	high polyreactivity
QVQLVESGGGLVQARGSLRLSCAASGSTFDPYAMGWYRQAPGINYSGASTYYADSVKGRFTISRDNAKNTVYLQMNSLKPDDTAVYYCAAEFVAQMNYWGQGTQVNVSS	low polyreactivity
QVQLVESGGGLVQARGSLRLSCAASGSTFEANSMGWYRQAPGKERELVAVLTWTGGSTYYADSVKGRFTISRDNAKNTVNLHMISLNPEDTAVEYCAADGVLPGRFFWPAHEYDYWGQGTQVTVSS	low polyreactivity
QVQLVESGGGLVQARGSLRLSCAASGSTFSYNDMGWYRQAPGKERDLVADINVSVGRTYYADSVKGRFTISRDNAKNTVFLQMNSLKPEDTAVYYCNATLYTITSYVYAYDYWGQGTQVTVSS	low polyreactivity
QVQLVESGGGLVQARGSLRLSCAASGSTFSYYTMGWYREAPGKERELVAAITRRGDSTYADSVKGRFTISRDNAMNTVYLQLNSLKPEDTAVYYFAADDYVGVSGMDYWGQGTQVTVSS	low polyreactivity
QVQLVESGGGLVQARGSLRLSCAASGSTLSPYVMGWYRQAPGKERELVATISRSGGRTYYADSVKGRFTISRDNAKNTVYLQMNSLKPEDTAVYYCAARTYYWGALIVSYDYWGQGTQGTVSS	low polyreactivity
QVQLVESGGGLVQARGSLRLSCAATGFTIWQNAMGWYRQPQGKERELVAGIRLSGGSTYADSVKGRFTIARDNAKNTVYLQMNSLKPEDTAVYYCAARIAGNYRYRSLRYDYWGQGTQVTVSS	high polyreactivity
QVQLVESGGGLVQARGSLRLSCAPSGFTFEAYAMGWYRQAPGKERELVAAISSSDTTSYADSVKGRFTISRDNAKNTVYLQMNSLKREDTAVYYCAADDWYTGYDYWGQGTQVTVSS	high polyreactivity
QVQLVESGGGLVQARGSLRLSCAPSGSIFDHNAMGWYRQAPGKESEFVAAISSSGGSTNYADSVKGRFTISRDIAKNTVYLQMNSLKPEDTAVYYCAAYPDRYVELGYWGQGTQVTVSS	low polyreactivity
QVQLVESGGGLVQARGSLRLSCASSGSTFSRYAMGWYRQAPGKERELVAGISWSGGNTYYADSVKGRFTISRDNAKNTVYLQMNSLKPEDTAVYYCAADFLDYWGVYGWAEYEYWGQGTQVTVSS	low polyreactivity
QVQLVESGGGLVQARGSLRLSCSASGSIIDIYAMGWYRQAPGKERELVAAITGGGSTNYADSVKGRFTISRDNAKNTVYLQMNILKPEDTAVYYCAAGTYLNGGGEYWGQGTQVTVSS	low polyreactivity
QVQLVESGGGLVQARGSLRLSSAASGIIFCHYVMGWYRQAPGKERELVAAISSRGGNTYYADSVKWRFTISRDNAKNTVYFQMNSLKPEDTAVYYCNARGGARAWYFAYNYWGHGTQVTVSS	high polyreactivity
QVQLVESGGGLVQARGSLRLSSAASGRTFHYNAMGWYRQAPGKERELVAAISFNGGGTYYADSVKGRFTISRDNAKNTVYLQMNCLKTEDTAVYYCATDVPSRYDYWGQGTQVTVSS	low polyreactivity
